From US20140220040A1
One block for each binder: values may come before it.

Biological target: Human LRP6-Fc (R&D Systems), recombinant human LRP6 containing the complete extracellular domain (human) (UniProt O75581)
Assay: SPR (BIAcore), mAb captured on anti-mouse chip, Fc-antigen injected, 1:1 model

Sequence of Human LRP6-Fc (R&D Systems), recombinant human LRP6 containing the complete extracellular domain (human) (O75581 20-1370 V1062I): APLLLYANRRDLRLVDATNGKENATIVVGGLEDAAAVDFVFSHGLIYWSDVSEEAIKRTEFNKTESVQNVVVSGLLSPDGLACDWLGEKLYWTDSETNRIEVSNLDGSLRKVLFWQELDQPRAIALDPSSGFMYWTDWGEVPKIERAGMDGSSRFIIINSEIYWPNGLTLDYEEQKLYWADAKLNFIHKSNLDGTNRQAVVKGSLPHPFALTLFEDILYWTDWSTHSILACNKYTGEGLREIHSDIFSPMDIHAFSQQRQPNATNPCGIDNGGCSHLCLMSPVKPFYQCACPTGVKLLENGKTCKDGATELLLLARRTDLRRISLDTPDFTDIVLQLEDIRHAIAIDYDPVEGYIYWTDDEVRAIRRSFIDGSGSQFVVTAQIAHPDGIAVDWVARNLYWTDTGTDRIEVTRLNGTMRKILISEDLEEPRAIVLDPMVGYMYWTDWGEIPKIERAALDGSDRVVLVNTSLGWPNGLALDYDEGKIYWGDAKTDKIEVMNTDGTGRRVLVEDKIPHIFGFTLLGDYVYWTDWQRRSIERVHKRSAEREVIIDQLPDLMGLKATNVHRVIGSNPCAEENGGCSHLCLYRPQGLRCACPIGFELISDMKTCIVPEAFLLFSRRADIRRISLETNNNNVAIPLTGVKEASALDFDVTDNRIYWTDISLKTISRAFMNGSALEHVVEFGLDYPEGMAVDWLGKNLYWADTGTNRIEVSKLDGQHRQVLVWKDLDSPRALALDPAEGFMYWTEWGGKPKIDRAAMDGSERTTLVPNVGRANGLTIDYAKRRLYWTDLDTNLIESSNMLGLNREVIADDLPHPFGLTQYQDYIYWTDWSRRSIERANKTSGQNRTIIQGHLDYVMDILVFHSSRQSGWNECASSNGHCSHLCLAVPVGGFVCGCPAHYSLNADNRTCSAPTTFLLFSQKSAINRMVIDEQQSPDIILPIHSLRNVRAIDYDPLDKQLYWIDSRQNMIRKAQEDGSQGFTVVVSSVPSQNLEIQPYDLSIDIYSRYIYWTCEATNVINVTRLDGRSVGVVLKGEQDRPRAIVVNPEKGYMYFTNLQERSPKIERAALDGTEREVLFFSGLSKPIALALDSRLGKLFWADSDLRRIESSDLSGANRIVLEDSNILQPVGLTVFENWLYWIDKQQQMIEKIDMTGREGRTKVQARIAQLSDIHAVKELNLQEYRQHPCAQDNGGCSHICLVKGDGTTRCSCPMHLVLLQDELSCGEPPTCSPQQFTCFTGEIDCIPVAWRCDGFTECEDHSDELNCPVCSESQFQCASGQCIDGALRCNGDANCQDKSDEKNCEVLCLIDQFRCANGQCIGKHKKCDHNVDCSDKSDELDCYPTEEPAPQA

- Kd: 1.09 nM
- koff: 4.51e-05 s⁻¹
- kon: 41400 M⁻¹ s⁻¹
B1: anti-LRP6 monoclonal antibody 995.5 (antibody, part only; not given: light chain, not determined, V domains shown, part only)
VH: RMKVLSLLYLLTAIPGILSDVQVQESGPGLVKPSQSLSLTCSVTGYSITSGYYWNWIRQFPGNKLEWMGYISYDGRNNYNPSLKNRISITRDTSKNQFFLKLNSVTTEDTATYYCARENSNYPYYYDYWGQGTTLTVSSAKT

- Kd: 2.05 nM
- koff: 5.7e-05 s⁻¹
- kon: 28000 M⁻¹ s⁻¹
B2: anti-LRP6 monoclonal antibody 993.9 (antibody, part only; not given: light chain, not determined, V domains shown, part only)
VH: DVQVQESGPGLVKPSQSLSLTCSVTGYSITSGYYWNWIRQFPGNKLEWMGYISYDGRNNYNPSLKNRISITRDTSKNQFFLKLNSVTTEDTATYYCARENSNYPYYYDYWGQGTTLTVSSAKT
